Source: the Human Domainome abundance scans (Beltran et al. 2025)
± gives the uncertainty stated by the source.

B1: Retinoic acid receptor RXR-alpha, residues 132 to 208; numbered along this chain, P19793 (parent)
chain: KHICAICGDRSSGKHYGVYSCEGCKGFFKRTVRKDLTYTCRDNKDCLIDKRQRNRCQYCRYQKCLAMGMKREAVQEE

Variants of: B1
Assay: abundance fitness (aPCA) (normalised: wild type 0, dead -1); higher = more abundant; growth selection in yeast, the domain comes from the species named
Details: Homo sapiens

| Variant | abundance fitness |
| --- | --- |
| KHICAICGDRSSGKHYGVYSCEGCKGFFKRTVRKDLTQTCRDNKDCLIDKRQRNRCQYCRYQKCLAMGMKREAVQEE [Y38Q] | -0.041 ± 0.045 |
| KHICAICGDRSSGKHYGVYSCEGCKGFFKRTVRKDLTRTCRDNKDCLIDKRQRNRCQYCRYQKCLAMGMKREAVQEE [Y38R] | -0.11 ± 0.031 |
| KHICAICGDRSSGKHYGVYSCEGCKGFFKRTVRKDLTSTCRDNKDCLIDKRQRNRCQYCRYQKCLAMGMKREAVQEE [Y38S] | -0.031 ± 0.039 |
| KHICAICGDRSSGKHYGVYSCEGCKGFFKRTVRKDLTTTCRDNKDCLIDKRQRNRCQYCRYQKCLAMGMKREAVQEE [Y38T] | 0.036 ± 0.047 |
| KHICAICGDRSSGKHYGVYSCEGCKGFFKRTVRKDLTVTCRDNKDCLIDKRQRNRCQYCRYQKCLAMGMKREAVQEE [Y38V] | 0.001 ± 0.031 |
| KHICAICGDRSSGKHYGVYSCEGCKGFFKRTVRKDLTWTCRDNKDCLIDKRQRNRCQYCRYQKCLAMGMKREAVQEE [Y38W] | -0.086 ± 0.036 |
| KHICAICGDRSSGKHYGVYSCEGCKGFFKRTVRKDLTYACRDNKDCLIDKRQRNRCQYCRYQKCLAMGMKREAVQEE [T39A] | -0.015 ± 0.037 |
| KHICAICGDRSSGKHYGVYSCEGCKGFFKRTVRKDLTYCCRDNKDCLIDKRQRNRCQYCRYQKCLAMGMKREAVQEE [T39C] | 0.04 ± 0.051 |
| KHICAICGDRSSGKHYGVYSCEGCKGFFKRTVRKDLTYDCRDNKDCLIDKRQRNRCQYCRYQKCLAMGMKREAVQEE [T39D] | 0.045 ± 0.062 |
| KHICAICGDRSSGKHYGVYSCEGCKGFFKRTVRKDLTYECRDNKDCLIDKRQRNRCQYCRYQKCLAMGMKREAVQEE [T39E] | 0.048 ± 0.037 |
| KHICAICGDRSSGKHYGVYSCEGCKGFFKRTVRKDLTYGCRDNKDCLIDKRQRNRCQYCRYQKCLAMGMKREAVQEE [T39G] | 0.045 ± 0.027 |
| KHICAICGDRSSGKHYGVYSCEGCKGFFKRTVRKDLTYHCRDNKDCLIDKRQRNRCQYCRYQKCLAMGMKREAVQEE [T39H] | 0.134 ± 0.092 |
| KHICAICGDRSSGKHYGVYSCEGCKGFFKRTVRKDLTYICRDNKDCLIDKRQRNRCQYCRYQKCLAMGMKREAVQEE [T39I] | 0.099 ± 0.052 |
| KHICAICGDRSSGKHYGVYSCEGCKGFFKRTVRKDLTYKCRDNKDCLIDKRQRNRCQYCRYQKCLAMGMKREAVQEE [T39K] | 0.027 ± 0.044 |
| KHICAICGDRSSGKHYGVYSCEGCKGFFKRTVRKDLTYLCRDNKDCLIDKRQRNRCQYCRYQKCLAMGMKREAVQEE [T39L] | -0.052 ± 0.033 |
| KHICAICGDRSSGKHYGVYSCEGCKGFFKRTVRKDLTYMCRDNKDCLIDKRQRNRCQYCRYQKCLAMGMKREAVQEE [T39M] | 0.046 ± 0.041 |
| KHICAICGDRSSGKHYGVYSCEGCKGFFKRTVRKDLTYNCRDNKDCLIDKRQRNRCQYCRYQKCLAMGMKREAVQEE [T39N] | 0.03 ± 0.07 |
| KHICAICGDRSSGKHYGVYSCEGCKGFFKRTVRKDLTYPCRDNKDCLIDKRQRNRCQYCRYQKCLAMGMKREAVQEE [T39P] | 0.027 ± 0.05 |

| Variant | abundance fitness |
| --- | --- |
| KHICAICGDRSSGKHYGVYSCEGCKGFFKRTVRKDLTYQCRDNKDCLIDKRQRNRCQYCRYQKCLAMGMKREAVQEE [T39Q] | -0.033 ± 0.046 |
| KHICAICGDRSSGKHYGVYSCEGCKGFFKRTVRKDLTYRCRDNKDCLIDKRQRNRCQYCRYQKCLAMGMKREAVQEE [T39R] | 0.008 ± 0.03 |
| KHICAICGDRSSGKHYGVYSCEGCKGFFKRTVRKDLTYSCRDNKDCLIDKRQRNRCQYCRYQKCLAMGMKREAVQEE [T39S] | 0.03 ± 0.036 |
| KHICAICGDRSSGKHYGVYSCEGCKGFFKRTVRKDLTYVCRDNKDCLIDKRQRNRCQYCRYQKCLAMGMKREAVQEE [T39V] | 0.05 ± 0.03 |
| KHICAICGDRSSGKHYGVYSCEGCKGFFKRTVRKDLTYWCRDNKDCLIDKRQRNRCQYCRYQKCLAMGMKREAVQEE [T39W] | -0.009 ± 0.039 |
| KHICAICGDRSSGKHYGVYSCEGCKGFFKRTVRKDLTYYCRDNKDCLIDKRQRNRCQYCRYQKCLAMGMKREAVQEE [T39Y] | 0.006 ± 0.093 |
| KHICAICGDRSSGKHYGVYSCEGCKGFFKRTVRKDLTYTARDNKDCLIDKRQRNRCQYCRYQKCLAMGMKREAVQEE [C40A] | -0.602 ± 0.054 |
| KHICAICGDRSSGKHYGVYSCEGCKGFFKRTVRKDLTYTDRDNKDCLIDKRQRNRCQYCRYQKCLAMGMKREAVQEE [C40D] | -0.314 ± 0.083 |
| KHICAICGDRSSGKHYGVYSCEGCKGFFKRTVRKDLTYTERDNKDCLIDKRQRNRCQYCRYQKCLAMGMKREAVQEE [C40E] | -0.405 ± 0.056 |
| KHICAICGDRSSGKHYGVYSCEGCKGFFKRTVRKDLTYTGRDNKDCLIDKRQRNRCQYCRYQKCLAMGMKREAVQEE [C40G] | -0.815 ± 0.052 |
| KHICAICGDRSSGKHYGVYSCEGCKGFFKRTVRKDLTYTHRDNKDCLIDKRQRNRCQYCRYQKCLAMGMKREAVQEE [C40H] | -0.09 ± 0.077 |
| KHICAICGDRSSGKHYGVYSCEGCKGFFKRTVRKDLTYTIRDNKDCLIDKRQRNRCQYCRYQKCLAMGMKREAVQEE [C40I] | -0.697 ± 0.15 |
| KHICAICGDRSSGKHYGVYSCEGCKGFFKRTVRKDLTYTKRDNKDCLIDKRQRNRCQYCRYQKCLAMGMKREAVQEE [C40K] | -0.504 ± 0.078 |
| KHICAICGDRSSGKHYGVYSCEGCKGFFKRTVRKDLTYTLRDNKDCLIDKRQRNRCQYCRYQKCLAMGMKREAVQEE [C40L] | -0.454 ± 0.05 |
| KHICAICGDRSSGKHYGVYSCEGCKGFFKRTVRKDLTYTMRDNKDCLIDKRQRNRCQYCRYQKCLAMGMKREAVQEE [C40M] | -0.621 ± 0.088 |
| KHICAICGDRSSGKHYGVYSCEGCKGFFKRTVRKDLTYTNRDNKDCLIDKRQRNRCQYCRYQKCLAMGMKREAVQEE [C40N] | -0.732 ± 0.15 |
| KHICAICGDRSSGKHYGVYSCEGCKGFFKRTVRKDLTYTPRDNKDCLIDKRQRNRCQYCRYQKCLAMGMKREAVQEE [C40P] | -0.591 ± 0.082 |
| KHICAICGDRSSGKHYGVYSCEGCKGFFKRTVRKDLTYTQRDNKDCLIDKRQRNRCQYCRYQKCLAMGMKREAVQEE [C40Q] | -0.707 ± 0.1 |
